From patent publication US10633455B2, “Method for treating and diagnosing disease using inhibitors of goodpasture antigen binding protein” (Fibrostatin S.L., priority 2011, dated 2020)

Key:
doxorubicin-induced PF = assay: Doxorubicin-induced pulmonary fibrosis in mice; format: in vivo, C57BL/6 male mice
Experimental: For induction of PF with doxorubicin (Example 3), eight to ten weeks-old C57BL/6 male mice were purchased from Harlan Ibérica (Barcelona, Spain). For intratracheal (i.t.) instillation of doxorubicin (Sigma), mice were anesthetized by intraperitoneal (i.p.) injection of ketamine (50 μg/g of body weight), atropine sulphate (0.2 μg/g) and diazepam (4 μg/g). The trachea was localized by cutaneous incision in the anterior face of the neck and immobilized with forceps. Then 75 μl of doxorubicin chlorhydrate (1 mg/ml) were injected i.t. with a 30 G needle. Skin was then sutured with 3/0 silk. Mice were fed ad libitum with a normal chow diet and bled from the retro-orbital plexus at different time points after doxorubicin i.t. instillation. […] Mice instilled i.t. with doxorubicin were daily injected i.p. with either with 0.027, 0.08, 0.25 or 1.225 mg/kg of Pinacidil or with 0.11, 0.34 or 0.95 mg/kg of Myricetin. Mice were sacrificed twelve days after doxorubicin administration for gene expression analysis and anatomopathological studies of the lungs.
In PF assays, mouse lungs were intrabronchially perfused with 4% phosphate buffered formalin, then incubated in this fixative during 24 hours and finally embedded in paraffin. Tissue sections of 5 μm were stained with HE or with Masson's trichrome following conventional methods. For immunohistochemistry, paraffin-embedded lungs were stained with anti-GPBP-pep1 antibodies (3), which was detected with anti-chicken-HPR and DAB substrate (Dako Diagnósticos, S.A., Barcelona Spain). Specimens were counterstained with hematoxylin.
In assays of experimental pulmonary fibrosis, the expression of GPBP and of collagens type I and type IV mRNAs in the lung was analyzed by real-time quantitative PCR (RT-qPCR). One μg of the isolated RNA was used for cDNA synthesis with a RT-PCR kit (Amersham Pharmacia Biotech, Piscataway, N.J.), according to the manufacturer instructions. RT-qPCR was performed on a MX-3000P Stratagene instrument (Agilent Technologies, Inc., Santa Clara, Calif.) using specific primers SYBR Green PCR Master Mix (Applied Biosystems, Life Technologies Corporation). Primers used were: for α1(I) collagen gene, 5′ primer 5′-[…]-3′ (SEQ ID NO: 12) and 3′ primer 5′-[…]-3′ (SEQ ID NO: 13); for GPBP gene, 5′ primer 5′-[…]-3′ (SEQ ID NO: 14) and 3′ primer 5′-[…]-3′(SEQ ID NO: 15); for 18S gene, 5′ primer 5′-[…]-3′ (SEQ ID NO: 16) and 3′ primer 5′-[…]-3′ (SEQ ID NO: 17). Results (in triplicate) were normalized to the ribosomal 18S subunit expression and measured in parallel in each sample. Data were expressed as mean fold change relative to control samples.

GPBP = molecular target: T1, GPBP (Homo sapiens, UniProt Q9Y5P4); assay: Inhibition of autophosphorylating activity of GPBP in vitro; format: biochemical; conditions: Pretswick Chemical Library selection (not shown)
T1 sequence (Q9Y5P4 1-624): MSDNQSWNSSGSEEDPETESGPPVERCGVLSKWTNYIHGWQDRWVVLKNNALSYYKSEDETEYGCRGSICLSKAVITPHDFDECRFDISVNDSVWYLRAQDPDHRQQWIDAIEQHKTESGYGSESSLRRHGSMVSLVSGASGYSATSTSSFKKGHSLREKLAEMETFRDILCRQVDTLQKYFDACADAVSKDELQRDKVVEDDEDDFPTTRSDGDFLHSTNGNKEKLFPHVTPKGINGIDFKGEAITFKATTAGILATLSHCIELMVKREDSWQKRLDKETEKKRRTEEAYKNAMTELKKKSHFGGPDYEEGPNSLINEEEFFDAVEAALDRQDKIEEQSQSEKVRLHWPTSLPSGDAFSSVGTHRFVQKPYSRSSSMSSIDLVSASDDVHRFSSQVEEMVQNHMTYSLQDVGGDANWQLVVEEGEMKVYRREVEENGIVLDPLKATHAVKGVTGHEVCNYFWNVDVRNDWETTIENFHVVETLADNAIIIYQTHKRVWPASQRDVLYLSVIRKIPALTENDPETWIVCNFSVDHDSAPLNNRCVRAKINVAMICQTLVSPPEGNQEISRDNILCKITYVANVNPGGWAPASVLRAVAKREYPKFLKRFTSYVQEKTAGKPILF

A549 cells = assay: mRNA expression profile / KEGG pathway analysis of A549 cells cultured with rcGPBP-1; format: cell-based, human; conditions: 200 ng/mL
Experimental: Human A549 cells were cultured with or without 200 ng/mL of rcGPBP-1 for 3 hours. Then cells were lysed and total RNA was extracted with RNeasy™ Protect mini kit (Qiagen, Valencia, Calif.) according to manufacturer's recommendations. RNA was quantified by spectrometry with a NanoDrop™ ND1000 (NanoDrop Technologies, Wilminton, Del.) and quality confirmed by RNA 6000 Nano Bioanalyzer (Agilent Technologies, Palo Alto, Calif.) assay. Briefly, 150 ng of total RNA were used to produce Cyanine 3-CTP-labeled cRNA using the Low Input Quick™ Amp Labelling Kit One-Color (Agilent) according to the manufacturer's instructions. Following ‘One-Color Microarray-Based Gene Expression Analysis’ protocol Version 6.0 (Agilent), 1600 ng of labelled cRNA were hybridized with the Whole Human Genome Oligo Microarray Kit (Agilent) containing 41000+ unique human genes and transcripts. Arrays were scanned in an Agilent Microarray Scanner according to the manufacturer's instructions and data extracted using Agilent Feature Extraction Software 10.7.1 following the Agilent protocol GE1_107_Sep09, grid template 014850_D_F_20100430 and the QC Metric Set GE1_QCMT_Sep09. Analysis was performed in the Genomics Core Service of the Centro de Investigación Príncipe Felipe (Valencia, Spain) using an Agilent Microarray Scanner (Agilent Technologies, Palo Alto, Calif.).
Raw data files were background corrected using supplier's methodology and intensity signal standardized across arrays via quantile normalization algorithm. Differential gene expression assessment of all comparisons was carried out using limma moderated t-statistics. Conventional adjustment for multiple testing proposed by Benjamini Hochberg (5) was used to derive adjusted P-values. Also, for each of the comparisons performed in the study, gene set analysis was carried out using logistic regression models, and correcting for multiple testing as before (5). All analyses where carried out using Babelomics™ (6) web suite at the Bioinformatics Department of Centro de Investigación Príncipe Felipe. Array data have been deposited in GEO (accession number GSE32181).

[1] = A549 + rcGPBP-1 vs A549, 3 hours, P. adjusted 0.1576

In the case of `CC(N/C(=N\C#N)Nc1ccncc1)C(C)(C)C` (centres unmarked) [pinacidil], the “expression of pulmonary α1(I) collagen mRNA” value (doxorubicin-induced PF; daily dose of 0.08 mg/kg i.p., day 12, RT-qPCR (FIG. 11A)) is reported as “significant reduced expression”, the “severity of doxorubicin-induced pulmonary fibrosis” value (doxorubicin-induced PF; daily dose of 0.08 mg/kg i.p., days 0-12, histology (FIG. 10)) is reported as “sharply reduced” and the “therapeutic effect (α1(I) collagen mRNA)” value (doxorubicin-induced PF; higher doses, 0.25 or 1.225 mg/kg/day (FIG. 11A)) is reported as “lost”. For the same molecule, the “autophosphorylating activity of GPBP” value (GPBP) was “inhibit the autophosphorylating activity of GPBP in vitro”.

In the case of `O=c1c(O)c(-c2cc(O)c(O)c(O)c2)oc2cc(O)cc(O)c12` [myricetin], the “doxorubicin-induced fibrosis (α1(I) collagen mRNA)” value (doxorubicin-induced PF; all doses tested (0.11, 0.34 or 0.95 mg/kg daily i.p.), day 12 (FIG. 11B)) is reported as “efficient reduction” and the “autophosphorylating activity of GPBP” value (GPBP) is reported as “inhibit the autophosphorylating activity of GPBP in vitro”.

B1: rcGPBP-1: Recombinant cGPBP-1 purified from culture media of a HEK 293 cell clone that constitutively secretes FLAG-GPBP-1 (protein)
chain: MSDNQSWNSSGSEEDPETESGPPVERCGVLSKWTNYIHGWQDRWVVLKNNALSYYKSEDETEYGCRGSICLSKAVITPHDFDECRFDISVNDSVWYLRAQDPDHRQQWIDAIEQHKTESGYGSESSLRRHGSMVSLVSGASGYSATSTSSFKKGHSLREKLAEMETFRDILCRQVDTLQKYFDACADAVSKDELQRDKVVEDDEDDFPTTRSDGDFLHSTNGNKEKLFPHVTPKGINGIDFKGEAITFKATTAGILATLSHCIELMVKREDSWQKRLDKETEKKRRTEEAYKNAMTELKKKSHFGGPDYEEGPNSLINEEEFFDAVEAALDRQDKIEEQSQSEKVRLHWPTSLPSGDAFSSVGTHRFVQKPYSRSSSMSSIDLVSASDDVHRFSSQVEEMVQNHMTYSLQDVGGDANWQLVVEEGEMKVYRREVEENGIVLDPLKATHAVKGVTGHEVCNYFWNVDVRNDWETTIENFHVVETLADNAIIIYQTHKRVWPASQRDVLYLSVIRKIPALTENDPETWIVCNFSVDHDSAPLNNRCVRAKINVAMICQTLVSPPEGNQEISRDNILCKITYVANVNPGGWAPASVLRAVAKREYPKFLKRFTSYVQEKTAGKPILF
In the case of B1, the “Log Odds Ratio, KEGG pathway hsa05322 SLE” value (A549 cells; A549 + rcGPBP-1 vs A549, 3 hours, P. adjusted 0.0003) is reported as 0.1444, the “Log Odds Ratio, KEGG pathway hsa00380 Tryptophan metabolism” value (A549 cells; [1]) is reported as −0.1522 and the “Log Odds Ratio, KEGG pathway hsa04120 Ubiquitin mediated proteolysis” value (A549 cells; [1]) is reported as −0.1130. For the same molecule, the “Log Odds Ratio, KEGG pathway hsa04210 Apoptosis” value (A549 cells; [1]) was −0.1307, the “Log Odds Ratio, KEGG pathway hsa05200 Pathways in cancer” value (A549 cells; [1]) was −0.0843 and the “Log Odds Ratio, KEGG pathway hsa05211 Renal cell carcinoma” value (A549 cells; [1]) was −0.1355. The “Log Odds Ratio, KEGG pathway hsa05222 Small cell lung cancer” value (A549 cells; [1]) was −0.1253, the “Log Odds Ratio, KEGG pathway hsa04510 Focal adhesion” value (A549 cells; A549 + rcGPBP-1 vs A549, 3 hours, P. adjusted 0.1579) was −0.0969 and the “Log Odds Ratio, KEGG pathway hsa04914 Progesterone-mediated oocyte maturation” value (A549 cells; A549 + rcGPBP-1 vs A549, 3 hours, P. adjusted 0.1771) was −0.1223. The “Log Odds Ratio, KEGG pathway hsa05218 Melanoma” value (A549 cells; A549 + rcGPBP-1 vs A549, 3 hours, P. adjusted 0.3348) was −0.1196 and the “changes in the expression of individual genes” value (A549 cells; A549 cells, microarray) was “No statistically significant changes”.
